Test results as given in the supplement of paper PMC9233669.
Variants at the floor of the assay were thinned out.

Columns and labels:
biotinyl-Phe-oxazolone = assay: self-aminoacylation, catalytic enhancement (BFO) (fold over background); higher = more active; k-Seq, kA / k0A0; sequences stand for … in GGGAAUGGAUCCACAUCUACGAAUUC…UUCACUGCAGACUUGACGAAGCUG
How it was run: (§1)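 Mutagenized RNA pools (0.43 μM; 21-nt variable region) were treated with 2–1250 μM of each biotinyl-aminoacyl-oxazolone. Conditions were 50 μL HEPES/NaCl/KCl/MgCl2/CaCl2 buffer, 5% acetonitrile, pH 6.9–7.0, room temperature, 90 minutes. Catalytic enhancement, the median kA relative to the uncatalyzed rate, was derived from streptavidin capture, qPCR and Illumina sequencing.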

biotinyl-Ile-oxazolone = assay: self-aminoacylation, catalytic enhancement (BIO) (fold over background); higher = more active; k-Seq, kA / k0A0; sequences stand for … in GGGAAUGGAUCCACAUCUACGAAUUC…UUCACUGCAGACUUGACGAAGCUG
How it was run: as §1

biotinyl-Met-oxazolone = assay: self-aminoacylation, catalytic enhancement (BMO) (fold over background); higher = more active; k-Seq, kA / k0A0; sequences stand for … in GGGAAUGGAUCCACAUCUACGAAUUC…UUCACUGCAGACUUGACGAAGCUG
How it was run: as §1

biotinyl-Val-oxazolone = assay: self-aminoacylation, catalytic enhancement (BVO) (fold over background); higher = more active; k-Seq, kA / k0A0; sequences stand for … in GGGAAUGGAUCCACAUCUACGAAUUC…UUCACUGCAGACUUGACGAAGCUG
How it was run: as §1

biotinyl-Leu-oxazolone = assay: self-aminoacylation, catalytic enhancement (BLO) (fold over background); higher = more active; k-Seq, kA / k0A0; sequences stand for … in GGGAAUGGAUCCACAUCUACGAAUUC…UUCACUGCAGACUUGACGAAGCUG
How it was run: as §1

biotinyl-Trp-oxazolone = assay: self-aminoacylation, catalytic enhancement (BWO) (fold over background); higher = more active; k-Seq, kA / k0A0; sequences stand for … in GGGAAUGGAUCCACAUCUACGAAUUC…UUCACUGCAGACUUGACGAAGCUG
How it was run: as §1

Sequence	self-aminoacylation (biotinyl-Phe-oxazolone)	self-aminoacylation (biotinyl-Ile-oxazolone)	self-aminoacylation (biotinyl-Met-oxazolone)	self-aminoacylation (biotinyl-Val-oxazolone)	self-aminoacylation (biotinyl-Leu-oxazolone)	self-aminoacylation (biotinyl-Trp-oxazolone)
CUACCUCAAACAAUCGCUCUG [Fam1A.1 aminoacylation ribozyme variant]	0.589	0.818	0.85	1.17	1.27	1.83
CUACCUCAAACACUCGGUCUG [Fam1A.1 aminoacylation ribozyme variant]	1.74	1.22	1.08	1.6	1.31	1.93
CUACCUCAAACGAUCGGUCUG [Fam1A.1 aminoacylation ribozyme variant]	1.42	0.987	1	0.761	1.03	0.954
CUACCUCAAAUAAUCGGUCUG [Fam1A.1 aminoacylation ribozyme variant]	1.1	1.05	1.08	0.863	1.12	1.23
CUACGUAAAACAAUCGGUCUG [Fam1A.1 aminoacylation ribozyme variant]	1.38	1.18	0.999	0.999	0.755	0.819
CUACGUCAAACAAACGGUCUG [Fam1A.1 aminoacylation ribozyme variant]	0.89	1.06	1.08	1.03	1.16	0.904
CUACGUCACACAAUCGGUCUG [Fam1A.1 aminoacylation ribozyme variant]	0.794	0.999	0.943	0.962	0.98	0.986
CUACGUCAGACAAUCGGUCUG [Fam1A.1 aminoacylation ribozyme variant]	1.67	1.61	1.86	1.42	1.28	0.99
CUACGUCGAACAAUCGGUCUG [Fam1A.1 aminoacylation ribozyme variant]	4.04	1.7	1.91	1.93	1.83	1.3
CUACUACAAACAAUCAGUCUG [Fam1A.1 aminoacylation ribozyme variant]	0.88	0.657	0.467	0.732	0.7	0.554
CUACUACAAACAAUCGGACUG [Fam1A.1 aminoacylation ribozyme variant]	0.703	0.852	0.695	0.769	0.582	0.469
CUACUACAAACAAUCGGGCUG [Fam1A.1 aminoacylation ribozyme variant]	0.456	1.16	0.989	1.05	1.07	0.83
CUACUACAAACCAUCGGUCUG [Fam1A.1 aminoacylation ribozyme variant]	0.739	0.837	0.845	0.822	0.702	0.765
CUACUACAUACAAUCGGUCUG [Fam1A.1 aminoacylation ribozyme variant]	0.703	0.812	0.901	0.782	0.641	0.58
CUACUCCAAAAAAUCGGUCUG [Fam1A.1 aminoacylation ribozyme variant]	1.33	0.894	0.674	0.846	0.857	1.06
CUACUCCAAACAAUCCGUCUG [Fam1A.1 aminoacylation ribozyme variant]	0.642	0.838	0.636	0.821	0.759	0.582
CUACUCCAAACAAUCGGGCUG [Fam1A.1 aminoacylation ribozyme variant]	1.02	1.36	1.61	1.01	1.29	1.14
CUACUCUUCAAGCAAUCGGUC [Fam1B.1 aminoacylation ribozyme variant]	25.4	0.859	0.904	0.924	1.07	11
CUACUGCAAACAAUCCGUCUG [Fam1A.1 aminoacylation ribozyme variant]	1.27	0.953	0.806	0.801	0.817	0.876
CUACUGCAAACAAUCGGUCUC [Fam1A.1 aminoacylation ribozyme variant]	0.785	0.855	0.916	0.885	0.716	0.681
CUACUGCAAACAAUCGGUCUU [Fam1A.1 aminoacylation ribozyme variant]	1.06	0.974	0.963	0.836	0.953	0.857
CUACUGCAAACAAUGGGUCUG [Fam1A.1 aminoacylation ribozyme variant]	1.5	1.25	1.2	1.08	1.13	1.12
CUACUGCAACCAAUCGGUCUG [Fam1A.1 aminoacylation ribozyme variant]	0.691	0.53	0.585	0.567	0.495	0.608
CUACUGCUAACAAUCGGUCUG [Fam1A.1 aminoacylation ribozyme variant]	0.437	0.538	0.491	0.559	0.597	0.418
CUACUUAAAACAAUAGGUCUG [Fam1A.1 aminoacylation ribozyme variant]	0.984	0.928	1.15	0.934	0.893	0.747
CUACUUAAAACAAUCCGUCUG [Fam1A.1 aminoacylation ribozyme variant]	0.461	0.799	0.876	0.905	0.756	0.547

Sequence	self-aminoacylation (biotinyl-Phe-oxazolone)	self-aminoacylation (biotinyl-Ile-oxazolone)	self-aminoacylation (biotinyl-Met-oxazolone)	self-aminoacylation (biotinyl-Val-oxazolone)	self-aminoacylation (biotinyl-Leu-oxazolone)	self-aminoacylation (biotinyl-Trp-oxazolone)
CUACUUAAAACAAUCGGGCUG [Fam1A.1 aminoacylation ribozyme variant]	0.623	1.31	1.05	1.02	0.999	0.924
CUACUUAAAACACUCGGUCUG [Fam1A.1 aminoacylation ribozyme variant]	0.731	0.992	0.758	0.792	0.882	0.762
CUACUUAAAACCAUCGGUCUG [Fam1A.1 aminoacylation ribozyme variant]	1.22	0.927	1.1	0.923	0.846	1.36
CUACUUAAACCAAUCGGUCUG [Fam1A.1 aminoacylation ribozyme variant]	0.538	0.88	0.693	0.67	0.594	0.473
CUACUUAAUACAAUCGGUCUG [Fam1A.1 aminoacylation ribozyme variant]	0.835	0.782	0.89	0.849	0.761	0.631
CUACUUCAAAAAAUCGGUCAG [Fam1A.1 aminoacylation ribozyme variant]	3.51	0.845	0.722	0.613	0.653	1.82
CUACUUCAAAAAAUCGGUUUG [Fam1A.1 aminoacylation ribozyme variant]	9.83	1.03	0.73	0.695	0.84	6.33
CUACUUCAAAAAUUCGGUCUG [Fam1A.1 aminoacylation ribozyme variant]	3.5	1.44	1.37	1.45	1.65	1.12
CUACUUCAAACAAAAGGUCUG [Fam1A.1 aminoacylation ribozyme variant]	0.784	0.822	0.624	0.946	0.618	0.592
CUACUUCAAACAAACGUUCUG [Fam1A.1 aminoacylation ribozyme variant]	0.686	0.591	0.529	0.622	0.579	0.591
CUACUUCAAACAAAGGGUCUG [Fam1A.1 aminoacylation ribozyme variant]	0.589	0.756	0.763	0.724	0.567	0.669
CUACUUCAAACAACGGGUCUG [Fam1A.1 aminoacylation ribozyme variant]	0.618	0.937	0.716	0.904	0.627	0.697
CUACUUCAAACAAGCGGUCUA [Fam1A.1 aminoacylation ribozyme variant]	0.85	0.936	0.838	0.707	0.73	0.669
CUACUUCAAACAAUAGGUCAG [Fam1A.1 aminoacylation ribozyme variant]	1.19	0.688	0.602	0.812	0.577	0.568
CUACUUCAAACAAUAGGUCGG [Fam1A.1 aminoacylation ribozyme variant]	0.7	0.792	0.643	0.693	0.754	0.676
CUACUUCAAACAAUAGGUCUA [Fam1A.1 aminoacylation ribozyme variant]	0.832	0.755	0.699	0.776	0.639	0.756
CUACUUCAAACAAUAGGUCUG [Fam1A.1 aminoacylation ribozyme variant]	1.11	0.813	0.696	0.817	0.681	0.617
CUACUUCAAACAAUCCAUCUG [Fam1A.1 aminoacylation ribozyme variant]	1.08	0.656	0.489	0.748	0.546	0.402
CUACUUCAAACAAUCCGGCUG [Fam1A.1 aminoacylation ribozyme variant]	1.01	1.5	1.4	1.78	1.44	0.952
CUACUUCAAACAAUCCUUCUG [Fam1A.1 aminoacylation ribozyme variant]	1.04	0.603	0.577	0.665	0.469	0.528
CUACUUCAAACAAUCGAACUG [Fam1A.1 aminoacylation ribozyme variant]	0.805	0.683	0.617	0.595	0.595	0.468
CUACUUCAAACAAUCGAGCUG [Fam1A.1 aminoacylation ribozyme variant]	0.816	0.85	0.59	0.706	0.481	0.396
CUACUUCAAACAAUCGAUUUG [Fam1A.1 aminoacylation ribozyme variant]	1.26	0.717	0.63	0.657	0.482	0.752
CUACUUCAAACAAUCGCCCUG [Fam1A.1 aminoacylation ribozyme variant]	0.818	1.05	1.19	1.2	0.959	0.581
CUACUUCAAACAAUCGCUCAG [Fam1A.1 aminoacylation ribozyme variant]	1	0.884	0.679	0.689	0.52	0.671
